# How the values were obtained:
# [1] = molecular target: anti-myc monoclonal antibody (doped selection experiment); assay: immunoprecipitation; PCR and restriction digest before and after selection
# [2] = molecular target: anti-myc monoclonal antibody (doped selection experiment); assay: immunoprecipitation from 1:20 myc:pool (LP154:LP160); PCR, AlwnI digest, phosphorimager; background method 2
# [3] = molecular target: anti-myc monoclonal antibody (doped selection experiment); assay: immunoprecipitation from 1:2000 myc:pool (LP154:LP160); PCR, AlwnI digest, phosphorimager; background method 3
# [4] = molecular target: anti-myc monoclonal antibody (doped selection experiment); assay: immunoprecipitation from 1:20 myc:pool (LP154:LP160); PCR, AlwnI digest, phosphorimager; background method 1
# [5] = molecular target: anti-myc monoclonal antibody (doped selection experiment); assay: immunoprecipitation from 1:2000 myc:pool (LP154:LP160); PCR, AlwnI digest, phosphorimager; background method 1
# [6] = molecular target: anti-myc monoclonal antibody (doped selection experiment); assay: immunoprecipitation from 1:200 myc:pool (LP154:LP160); PCR, AlwnI digest, phosphorimager; background method 2
# [7] = molecular target: anti-myc monoclonal antibody (doped selection experiment); assay: second set of digests, method 2; sample equivalent to lane 4 (1:2000 myc:pool)
# [8] = molecular target: anti-myc monoclonal antibody (doped selection experiment); assay: immunoprecipitation from 1:20 myc:pool (LP154:LP160); PCR, AlwnI digest, phosphorimager; background method 3
# [9] = molecular target: anti-myc monoclonal antibody (doped selection experiment); assay: second set of digests, method 2; sample equivalent to lane 2 (1:20 myc:pool)
# [10] = molecular target: anti-myc monoclonal antibody (doped selection experiment); assay: second set of digests, method 2; sample equivalent to lane 3 (1:200 myc:pool)
# [11] = molecular target: anti-myc monoclonal antibody (doped selection experiment); assay: immunoprecipitation from 1:200 myc:pool (LP154:LP160); PCR, AlwnI digest, phosphorimager; background method 3
# [12] = molecular target: anti-myc monoclonal antibody (doped selection experiment); assay: immunoprecipitation from 1:200 myc:pool (LP154:LP160); PCR, AlwnI digest, phosphorimager; background method 1
# [13] = molecular target: anti-myc monoclonal antibody (doped selection experiment); assay: immunoprecipitation from 1:2000 myc:pool (LP154:LP160); PCR, AlwnI digest, phosphorimager; background method 2
binder,measurement,setting,value
MAEEQKLISEEDLLRKRREQLKHKLEQLRNSCA (C-terminus joined by an amide bond to the 3' puromycin of its own mRNA-DNA linker template LP154 (SEQ ID NO: 3)) [RNA-protein fusion LP154 (long myc template fusion)],enrichment (fold) relative to the random library,[1],20 to 40 fold
same,Enrichment of Myc Template vs. Pool,[2],10.4 fold
same,Enrichment of Myc Template vs. Pool,[3],10.2 fold
same,Enrichment of Myc Template vs. Pool,[4],7 fold
same,Enrichment of Myc Template vs. Pool,[5],5.7 fold
same,Enrichment of Myc Template vs. Pool,[6],43 fold
same,enrichment (fold) of myc template vs. pool,[7],12 fold
same,Enrichment of Myc Template vs. Pool,[8],8.7 fold
same,enrichment (fold) of myc template vs. pool,[9],10.7 fold
same,enrichment (fold) of myc template vs. pool,[10],38 fold
same,Enrichment of Myc Template vs. Pool,[11],27 fold
same,Enrichment of Myc Template vs. Pool,[12],16.6 fold
same,Enrichment of Myc Template vs. Pool,[13],39 fold
